We go through 1 molecule from patent WO2016002189A1 (dated 2016).

One assay has as its target T1, proglucagon (Homo sapiens (Human), UniProt P01275 21-180).
T1 construct: Native protein in culture supernatants or HPLC fractions of human duodenal cancer cell lines, not purified recombinant protein; also called proglucagon protein
The assay is described as follows: epitope assay (chemiluminescent immunoassay).

Assay [1] concerns the target T2, peptide consisting of amino acid residues 111 to 144 of proglucagon.
T2 construct: Synthetic peptide; also called proglucagon (111-144); proglucagon 111-144 antigen
T2 peptide: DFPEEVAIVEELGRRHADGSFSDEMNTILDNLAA
The assay is described as follows: ELISA screening of hybridomas against the proglucagon peptides. On the technique in general: An ELISA detects its analyte on a solid surface through an enzyme-linked reagent.

Assay [2] concerns the target T3, human GLP-2 (manufactured by Yanaihara Laboratories) (human, UniProt P01275 146-178).
T3 construct: also called glucagon-like peptide-2
T3 peptide (looked up): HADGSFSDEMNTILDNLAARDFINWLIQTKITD
Kind of assay: competitive ELISA with biotinylated proglucagon (111-144) as labelled antigen.

For assay [3], the target named is T4, human GLP-1 (manufactured by Yanaihara Laboratories) (human, UniProt P01275 98-127, limits assumed).
T4 construct: also called glucagon-like peptide-1
T4 peptide (looked up): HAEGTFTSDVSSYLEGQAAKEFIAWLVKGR
The assay is described as above.

The target of assay [4] is T5, human glucagon (manufactured by Yanaihara Laboratories) (human, UniProt P01275 53-81).
T5 construct: Glucagon is only the 29-residue hormone cut from it
T5 sequence (P01275 53-81): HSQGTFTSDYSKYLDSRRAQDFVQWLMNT
The description is as above.

T1 sequence (P01275 21-180): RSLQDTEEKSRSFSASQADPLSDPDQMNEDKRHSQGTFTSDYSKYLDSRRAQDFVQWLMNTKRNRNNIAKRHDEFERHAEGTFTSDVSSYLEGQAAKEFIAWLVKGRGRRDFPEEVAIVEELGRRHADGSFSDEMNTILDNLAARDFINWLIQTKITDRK

B1: SCC-MGD-913Ab (antibody, V domains shown)
VH: DVKLVESGGGLVKPGGSLKLSCAASGFTFSSFAMTWVRQTPEKRLEWVATISNGGSYTYYPDSVKGRFTISRDNAKNTLYLQMSSLRSEDTAMYYCTRDGAGKGFPLDYWGQGTTLTVSS
VL: NILLTQSPSSLAVSAGEKVTMSCKSSQSVFYSSNQKNYLAWYQQKPGQSPKLLIYWASTRESGVPDRFTGSGSGTDFTLTISSVQAEDLAIYYCHQYFSSLTFGAGTKLELK
notes: Mouse hybridoma monoclonal from immunisation with the proglucagon 111-144 peptide
In the case of B1, the binding result is recorded as “binds” with proglucagon; “binds” in assay [1]; “no binding” in assay [2]; “no binding” in assay [3]; “no binding” in assay [4].
